One may read the Kd as the free concentration of one partner at which half of the binding sites on the other are occupied at equilibrium, for simple one-to-one binding.

This is an account of results in publication PMC5636753, “Structural basis for DAXX interaction with ATRX” (Protein & Cell, 2017).

B1: ATRX_(1,253–1,326) [not stated] / DAXX helical bundle (DHB) domain, DAXX_(55–144) [not stated] (parent complex)
chain 1: SVPVTVDDDDDDNDPENRIAKKMLLEEIKANLSSDEDGSSDDEPEEGKKRTGKQNEENPGDEEAKNQVNSESDS
chain 2: GKKCYKLENEKLFEEFLELCKMQTADHPEVVPFLYNRQQRAHSLFLASAEFCNILSRVLSRARSRPAKLYVYINELCTVLKAHSAKKKLN
B2: DAXX-binding motif of ATRX, ATRX_(1,260–1,289) [not stated] / DAXX helical bundle (DHB) domain, DAXX_(55–144) [not stated] (parent complex)
chain 1: DDDDDNDPENRIAKKMLLEEIKANLSSDED
chain 2: B1 chain 2

The variants in the first test derive from B1. The experiment in a line: ITC. On the technique in general: ITC needs no label: the signal is the heat of the interaction.
For the variant chain 1 SVPVTVDDDDDDNDPENRIAKKMLLEEQKANLSSDEDGSSDDEPEEGKKRTGKQNEENPGDEEAKNQVNSESDS, the equilibrium dissociation constant (Kd) was determined as 7.35 µM. Regarding chain 1 SVPVTVDDDDDDNDPENRIAKKMLLEERKANLSSDEDGSSDDEPEEGKKRTGKQNEENPGDEEAKNQVNSESDS, the Kd came out at 34.8 µM. Still for that read-out and setting: next, chain 1 SVPVTVDDDDDDNDPENRIAKKMLLEEAKANLSSDEDGSSDDEPEEGKKRTGKQNEENPGDEEAKNQVNSESDS: 0.4 µM; chain 1 SVPVTVDDDDDDNDPENRIAKKMALEEAKANLSSDEDGSSDDEPEEGKKRTGKQNEENPGDEEAKNQVNSESDS: 12 µM. Same read-out and setting: the value for chain 1 SVPVTVDDDDDDNDPENRIRKKMLLEEIKANLSSDEDGSSDDEPEEGKKRTGKQNEENPGDEEAKNQVNSESDS was 1.04 µM.

As for chain 1 SVPVTVDDDDDDNDPENRIAKKMLREEIKANLSSDEDGSSDDEPEEGKKRTGKQNEENPGDEEAKNQVNSESDS, the Kd was 0.97 µM. On the same count and under the same terms, the value for chain 1 SVPVTVDDDDDDNDPENRIAKKMQLEEIKANLSSDEDGSSDDEPEEGKKRTGKQNEENPGDEEAKNQVNSESDS was 43.3 µM; that for chain 1 SVPVTVDDDDDDNDPENRIAKKMALEEIKANLSSDEDGSSDDEPEEGKKRTGKQNEENPGDEEAKNQVNSESDS was 8.33 µM; that for chain 1 SVPVTVDDDDDDNDPENRIAKKMRLEEIKANLSSDEDGSSDDEPEEGKKRTGKQNEENPGDEEAKNQVNSESDS was 73.5 µM.

Variants of B2 are the subject of the next test. The experiment in a line: ITC.
Regarding chain 1 AAAAANDPENRIAKKMLLEEIKANLSSDED, the Kd is 0.85 µM. The same measure, in the same setting: the value for chain 1 DDDDDNAPANRIAKKMLLEEIKANLSSDED was 1.75 µM.
